What was measured:
Fcγ-RIIa (H131) = target: T1, Fcγ-RIIa (H131) (Homo sapiens, UniProt P12318); experiment: Relative binding to FcγIIa (His131) by surface plasmon resonance (SPR); details: for Relative level of FcyRIIa binding (at Day-14) (%): EXAMPLE-8, small-scale purified mAb from CHO L971 process, SPR, H131 allotype
T1 sequence (P12318 34-217 limits assumed): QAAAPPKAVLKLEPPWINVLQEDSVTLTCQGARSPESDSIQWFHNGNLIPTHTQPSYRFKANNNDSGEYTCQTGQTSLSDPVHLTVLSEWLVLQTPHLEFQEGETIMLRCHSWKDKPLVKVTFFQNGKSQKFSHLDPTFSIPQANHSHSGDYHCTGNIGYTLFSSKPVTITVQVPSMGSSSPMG
Excerpt: Fcγ-receptors are mediators of effector functions on immune effector cells. Among the different human Fcγ-receptors, Fcγ-RIIa is considered to be a dominant factor in mediating antibody dependent phagocytosis (ADCP). Of the two most prevalent allotypes of Fcγ-RIIa, the form with a histidine at amino acid position 131 (H131) is often described as the higher affinity allotype. (Nimmerjahn and Ravetch 2008, Yamada et al. 2013)
(§1) Here, relative binding of the small-scale purified aSyn-L971-mAb samples to FcRn and FcγIIa (His131) by surface plasmon resonance (SPR) was determined. The relative binding of the small-scale purified aSyn-L971-mAb samples to the target was determined by ELISA.

human α-synuclein = human α-synuclein (Homo sapiens, UniProt P37840); experiment: Relative binding to the target by ELISA; details: for Relative level of Target binding (at Day-14) (%): EXAMPLE-8, small-scale purified mAb from CHO L971 process, ELISA
Method: as §1

FcRn = FcRn (Homo sapiens, UniProt P55899); experiment: Relative binding to FcRn by surface plasmon resonance (SPR); details: for Relative level of FcRn binding (at Day-14) (%): EXAMPLE-8, small-scale purified mAb from CHO L971 process, SPR
Chain of FcRn (P55899 24-297 limits assumed): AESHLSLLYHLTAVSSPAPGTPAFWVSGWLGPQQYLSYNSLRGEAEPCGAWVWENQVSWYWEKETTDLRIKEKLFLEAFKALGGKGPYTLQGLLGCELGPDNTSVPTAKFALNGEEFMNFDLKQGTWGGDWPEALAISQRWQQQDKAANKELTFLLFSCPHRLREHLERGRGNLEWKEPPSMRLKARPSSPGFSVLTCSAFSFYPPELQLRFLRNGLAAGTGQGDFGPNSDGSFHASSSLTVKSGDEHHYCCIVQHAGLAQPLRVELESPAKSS
Chain of FcRn (P61769 21-119 partner): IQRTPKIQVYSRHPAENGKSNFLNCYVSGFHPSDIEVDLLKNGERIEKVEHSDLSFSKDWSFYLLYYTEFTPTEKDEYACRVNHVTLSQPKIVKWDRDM
Excerpt: The neonatal Fe receptor (FcRn) influences the pharmacokinetic (PK) profile of IgG-type antibodies by its ability to salvage antibodies from the early endosome and recycle them back into circulation. The interaction with FcRn is considered to be the most critical factor in determining the PK of IgG-type therapeutic antibodies and is considered a surrogate for clearance (see review Nimmerjahn and Ravetch 2008).
as §1

Row | Substance | Relative level of FcyRIIa binding (at Day-14) (%) (Fcγ-RIIa (H131)) | Relative level of Target binding (at Day-14) (%) (human α-synuclein) | Relative level of FcRn binding (at Day-14) (%) (FcRn) | Fcγ-RIIa (H131) relative binding level, higher than from the process with 3 mM L-cystine (Fcγ-RIIa (H131); FIG. 11D, antibody from process with 6 mM L-cysteine vs 3 mM L-cystine) | Fcγ-RIIa (H131) relative binding level (Fcγ-RIIa (H131); FIG. 11D, antibody from the process with 3 mM L-cystine in production medium) | Fcγ-RIIa (H131) relative binding level (Fcγ-RIIa (H131); FIG. 11D, antibody from the process with 6 mM L-cysteine in production medium) | target relative binding level, higher than from the process with 3 mM L-cystine (human α-synuclein; FIG. 11E, antibody from process with 6 mM L-cysteine vs 3 mM L-cystine) | target relative binding level (human α-synuclein; FIG. 11E, antibody from the process with 3 mM L-cystine in production medium) | target relative binding level (human α-synuclein; FIG. 11E, antibody from the process with 6 mM L-cysteine in production medium) | FcRn relative binding level, higher than from the process with 3 mM L-cystine (FcRn; FIG. 11C, antibody from process with 6 mM L-cysteine vs 3 mM L-cystine) | FcRn relative binding level (FcRn; FIG. 11C, antibody from the process with 3 mM L-cystine in production medium) | FcRn relative binding level (FcRn; FIG. 11C, antibody from the process with 6 mM L-cysteine in production medium)
1 | anti-α-synuclein L971 (6 mM Cysteine): anti-human α-synuclein monoclonal antibody (Prasinezumab) from CHO L971 process with 6 mM L-cysteine in production medium | 113.0% | 118.0% | 118.0% |  |  |  |  |  |  |  |  | 
2 | anti-α-synuclein antibody L971: anti-human α-synuclein monoclonal antibody expressed by CHO L971 cell-line; CHO L971 cells produce Prasinezumab |  |  |  | about 36% | about 77% | about 113% | about 35% | about 83% | about 118% | about 33% | about 85% | about 118%
3 | anti-α-synuclein L971 (3 mM Cystine): anti-human α-synuclein monoclonal antibody (Prasinezumab) from CHO L971 process with 3 mM L-cystine in production medium | 77.0% | 83.0% | 85.0% |  |  |  |  |  |  |  |  | 

Source: patent US12637517B2, “Enzyme and pathway modulation with sulfhydryl compounds and their derivatives” (HOFFMANN-LA ROCHE INC., priority 2020, dated 2026)
